Data from the nanobody polyreactivity screen of Harvey et al. (2022).

Experiment: yeast display, Sf9 membrane polyspecificity reagent, FACS + sequencing; frameworks hold sequencing errors
Summary of the method: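 A synthetic nanobody library was expressed on Saccharomyces cerevisiae BJ5465 by galactose induction for 36–48 hours. The library was stained for 1 hour at 4 °C with 10% biotinylated, detergent-solubilized Sf9 membrane reagent and enriched with streptavidin microbeads before FACS. Low and high (top ~1%) gates were set on anti-HA fluorescence for expression and streptavidin fluorescence for reagent binding, and each polyreactivity label reflects the gate of origin.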

Row | Sequence | polyreactivity (PSR sort gate)
1 | QVQLVESGGGLVQAGGSLRLSCAASGRTFTSYAMGWYRQAPGKESELVAAIRRSGGSTYADSVKGRFTISRDNAKNTVYLQMNSLKPEDTAVYYCAAGHYWFTKGYHTLYDMDYWGQGTQVTVSS | high polyreactivity
2 | QVQLVESGGGLVQAGGSLRLSCAASGYTFTTYAMGWYRQAPGKEREFVASIRWRGGNTYYADSVKGRFTISRDNAKNTVYLQMNSQKREDTAVYYCARRVDYISSKYGYWGQGTQVTVSS | high polyreactivity
3 | QVKLVESGGGLVQAGGSLRLSCAASGFTFALYSMGWYRQAPGKERELVAAITRRGGSTYYADSVKGRFTISRDNAKNTVYVQMNSLKPEDTAVYYCAKRERAIKVSRYDSHDYWGQGTQVTVSS | high polyreactivity
4 | QVQLVESGGGLVQAGGSLRISCAASGIFPAYDMGWYRQAPGKERELVASISSDGSTYYADSVKGRFTISRDNAKNTVYLQMNSLKPEDTAVYYCNDVAIEPYYYVVYDIFDYWGQGTQVTVSS | low polyreactivity
5 | QVQLVESGGGLVQAGGSLRLSCAASGRTFKYYAMGWYRQAPGKERELVAAITYRDRTYYADSVKGRFTISRDNAKNTVYLQMNSLKPEDTAVYYCAAQHYGSDGRGFDYWGQGTQVTVSS | low polyreactivity
6 | QVQLVESGGGLVQAGGSLRISCAASGNTFWKYAMGWYRQAPGKERELVAAISKSGGSTYYADSVKGRFTISRDNAKNTVYLQMNSLKPEDTAVYYCAAVNYRWYSRNYDHYYWGQGTQVTVSS | high polyreactivity
7 | QVQLVESVGGLVQAGGSLRLSCPASGITFEQYAMGWYRQAPGKEREWVAAISSNGGITFYADSVKGRFTISRDNAKNTVYLQMNSLKPEDTAVYYCAARLCVTYPYIAYDYWGQGTQVTVSS | high polyreactivity
8 | QVQLVESGGGLVQAGGSLRLSCAASGRTFFTYAMGWYRQAPGKERELVAAITYRGGGTYYADSVKGRFTISRDNAKNTVYLQMNSLKPEDTAVYYCAAEYWVGVYLYDYWGQGTQVTVSS | high polyreactivity
9 | QVQLVESGGGLVQAGGSLRLSCAASGRTFTNYAMGWYRQAPGKERELVAAAITVGGGRTYYADSVKGRFTISRDNAKNTVYLQMNSLKPEDTAVYYCATDFGTYWYEYWGQGTQVTVSS | high polyreactivity
10 | QVQLVESGGGLVQAGGSLRLSCAASGSTFYANPMGWYRQAPGKERELLAAITSGGSTNYADSVKGRFTISRDNAKITVYLQMISLKPEDTAVYYCATQVNRERHAEDYWGQGTQVTVSS | low polyreactivity
11 | QVQLVESGGGLVQAGGCLRISCAASGSIFPFYVMGRYRQAPGKERELVAAITRSGGSTYYADSVKGRFTISRDNAKNTVYLQMNSLKPEDTAVYYCAKRPHHGSTKYNYWGQGTQVTVSS | low polyreactivity
12 | QVQLVESGGGLDQAGGSLRLSCPASGNIFTGNAMGWYRQAPGKEREFVAAISSVGGSTYYADSVKGRFTISRDNAKNTVYLQMNSLKPEDTAVYYCAASRVRYSYGYPYYYWGQGTQVTVSS | high polyreactivity
13 | QVQLQESGGGLVQAGGSLRLSCAASGYISQSSVMGWYRQAPGKEREFVASISYGATTYYADSVKGRFTISRDNAKNTVYLQTNSPKPEDTAVYYCAVWVKRGFSHRYWGQGTQVTVSS | high polyreactivity
14 | QVQLVESGGGLVQAGGSLRLSCAASGFIFTPYTMGWYRQAPGKERELVAAITDGSSTYYADSVKGRFTISRDNAKNTVYLQMNSLKPEDTAVYYCAAVPRYQYGYWGQGTQVTVSS | low polyreactivity
15 | QVQLVESGGGLVQAGGSLRLSCAASGRIFGYYAMGWYRQAPGKERELVAAISSSGGSTYYADSVKGRFTISRDNAKNTVYLQMNSLKPEDTAVYYCAAGGPRVNGYGRAYDYWGQGTQVTVSS | high polyreactivity
16 | QVQIVESGGGLVQAGGSLRLSCAASGRTFAWYAMGWYRQAPGKERELVAAITWSGGSTYYADSVKGRFTISRDNAKNTVYLQMNSLKPEETAVYYCAARTVVGWYSRYCYWGQGTQVTVSS | low polyreactivity

Row | Sequence | polyreactivity (PSR sort gate)
17 | QVQLVESGGGLVQAGGSLRLSCAASGFTFGGYAMGWYRQAPGKEREMVAGISGSGGRTYYADSVKGRFTISRDNAKNTVYLQMNSLKPEDTAVYYCGADRASPYLEYYWGLGTQVTVSS | low polyreactivity
18 | QVQLVESGGGLVQAGGSLRLSCAASRRTYWYNAMGWYRQSPGKERELVAAISRAGRTYYADSVKGRFTISRDNAKNTVYIQMNSLKPEDTAVYYCNVVLFGDSGNLQYYYWGQGTQVTVSS | high polyreactivity
19 | QVQLVESGGGLVQAGGSLRLSCAASGRTFYSNAMGWYRQAPGKERELVATITLSGGSTDYADSVKGRFTISRDNAKNTVYLQMNSLKPEDTAVYYCNADTDVHLIMGYWGQGTQVTVSS | low polyreactivity
20 | QVQLEESGGGLVQAGGSLRLICAASGRIFWLNAMGWYRQAPGKEREFVASITYGSDSTYYADSVKGRFTISRDNAKNTVYLQMNSLKPEDTAVYYCNREGWHYGPYVYWGQGTQVTVSS | low polyreactivity
21 | QVQLVESGGGLVQAGGSLRLSCAASGSIFRSNAMGWYRQPPGKERELVAAITLSGGSTYYADSVKVRFTISRDNAKNTVYLQMNSLKPEDTAVYYCAAAYYLFSIHDYWGQGNQVTVSS | low polyreactivity
22 | QVQLVESGGGLVQAGGSLRLSCAASGRIFTYYDMGWYREAPGKERELVAAITWGGGSTYYADSVKGRFTISRDNAKNSVYLQMNSLKPEDSAVYYCATLYYTFVWRHDYWGQGTQVTVSS | low polyreactivity
23 | QVQLVESGGGLVQAGGSLRLTCAASGRTFGTYAMGWSRQAPGKERELVAVITNGGGTYYADSVKGRFTISRDNAKNTVYLQMNSLKPEDTAVYYCNTDRYGLRRWVYSYWGGYDYWGQGTQVTVSS | low polyreactivity
24 | QVQLVESGGGLVQAGGSLRLSCAASGRIFQYYAMGWYRQAPGKERELVAAITRSGGRTYYADSVKGRFTISRDNAKNTVYLQMYSLKPEDTAVYYCAASQRYSVIYYGFSEYDYWGQGTQVTVSS | high polyreactivity
25 | QVQLVESWGGLVQAGGSLRLSCAASGLTFNYYAMGWYRQAPGKERELVAAITSSGGSTYYADSVKGRFTISRDNAKNTVYLQMNSLKPEDTAVYYCNADVYAHRYIYGFDYWGQGTQVTVSS | high polyreactivity
26 | QVQLVESGGGLVQAGGSLRLSCAASGRIFWGYVMGWYRQAPGKERELVAAISSGGDTHYADSVKGRFTISRDNAKKTVYLQMNSLKPEDTAVYYCAARPNFTPYEYGYWGQGTQVTVSS | low polyreactivity
27 | QVQLVESGGGLVQAGGSLRLSCAASGSIFGVYAMGWYRQAPGKERELVAAIDSGSSTDYADSVKGRFTISRDNAKNTVYLQMNSLKPEDTAVYYCYPLDLAPVDYWGQGTQVTVSS | low polyreactivity
28 | QVQLVESGGGLVQAGGSLRLSCAASGLTLNYYAMGWYRQAPGKERELVASISRSGGRTYYADSVKGRFTISRVNAKNTVYLQMNSLKPDDSAVYYCNADWYRGRYDYWGQGTQVTVSS | high polyreactivity
29 | QVQLVESCGGLVQAGGSLRLTCAASGSTFNWYTMGWYRQAPGKDRELVAAMSRGTGSTYYADSVKGRFTMSRDNANNRVYVQMNSLKPEDTAVYSCAKQGYRYSSFLYDYWGQGTQVTVSS | low polyreactivity
30 | QVQLVESGGGLVQAGGSLRLSCASSGSIFAWNAMGWYRQTPGKERELVAAINSGGGTYYADSVKGRFTISRDNAKNTVYSQMNSLIPEDTAVYYCAAGRLSHRYRYNYWGQGTQVTVSS | high polyreactivity
31 | QVQLVESGGGLVQAGGSLRLSCAASGSIFSRNAMGWYRQEPGKEREFVAAISYSSGSTYYADSVNGRFTISRDNAKNTVYLQMNSLKPEDTAVYYCAADTTKLQGVEGDYWGQGTQVTVSS | low polyreactivity
32 | QVQLVESGGGLVQAGGSLRLSCAASGRIFRIYTMGWYREAPGKERELVAAISKSGGGTYYADSVKGRFTISRDNAKNTVYLQMNSLKPEDTAVYYCAAVSPNTAYDYWGQGTQVTVSS | high polyreactivity
